B1: SCT-Fa053 (antibody, V domains shown)
VH: EVQLQQSGPVLVKPGASVKMSCKASGYSFTGYHMNWVKQSHGKSLEWIGIINPYNSATTYNQKFKGKATLTVDKSSSTAYMELNSLTSEDSVVYYCVRGAYGNPLDYWGQGTTLTVSS
VL: DIKMTQSPSSMYASLGERVTITCKASQDINSYLSWFQQKPGKSPKTLIYRANRLVDGVPSRFSGSGSGQDYSLTISSLEYEDMGIYYCLQYDEYPYTFGGGTKLEIK
notes: murine IgG
B2: SCT-Fa052 (antibody, V domains shown)
VH: EVQLQQSGPVLVKPGASVKMSCKASGYSFTGYHMNWVKQSHGKSLEWIGIINPYNSASTYNQKFKGKATLTVDKSSSTAYMELNSLTSEDSVVYYCVRGAYGNPLDYWGQGTTLTVSS
VL: DIKMTQSPSSMYASLGERVTITCKASQDINSYLSWFQQKPGKSPKTLIYRTNRLVDGVPSRFSGSGSGQDYSLTISSLEYEDMGIYYCLQYDEYPYTFGGGTKLEIK
notes: murine IgG
B3: SCT-Fa054 (antibody, V domains shown)
VH: EVQLQQSGPVLVKPGASVKMSCKASGYSFTGYHMNWVKQSHGKSLEWIGIINPYNSATTYNQKFKGKATLTVDKSSSTAYMEVNSLTSEDSLVYYCVRGAYGNPLDYWGQGTTLTVSS
VL: DIKMTQSPSSMYASLGERVTITCKASQDINSYLSWFQQKPGKSPKTLIYRANRLLDGVPSRFSGSGSGQDYSLTISSLEYEDMGIYYCLQYDEYPYTFGGGTKLEIK
notes: murine IgG
B4: SCT-Fa059 (antibody, V domains shown)
VH: EVQLQQSGPVLVKPGASVKMSCQASGYSFTGYHMNWVKQSHGKSLEWIGIINPYNSGITYNQKFKGRATLTVDKSSDTAYMDLNSLTSEDSVVYYCVRGAYGNPLDYWGQGTTLTVSS
VL: DIRMTQSPSSIYASLGERVTITCKASQDINSYLSWFQQKPGKSPETLIYRTNRLVDGVPSRFSGSGSGQDYSLTISSLEYEDMGIYYCLQYDEYPYTFGGGTKLEIK
notes: murine IgG
B5: SCT-Fa061 (antibody, V domains shown)
VH: EVQLQQSGPVLVRPGASVKMSCKASGYSFTGYHMNWVKQSHVKSLEWIGIINPYNSATTYNQNFKGKATLTVDKSSSTAYMELNSLTSEDSVVYYCVRGAYGNPLDYWGQGTTLTVSS
VL: DIKMTQSPSSMYASLGERVTITCKASQDINSYLSWFQLKPGKSPKTLIYRANRLVDGVPSGFSGSGSGQDYSLTISSLEYEDMGIYYCLQYDEYPYTFGGGTKLEIK
notes: murine IgG
B6: SCT-Fa055 (antibody, V domains shown)
VH: EVQLQQSGPVLVKPGASVKMSCKASGYTFTDYHMNWVKQSHGKSLEWIGVISPYNGGTSQNQKFKGKATLTVDKSSSTAYMELNRLTSEDSAVYYCARSDYGSPLDYWGQGTTLTVSS
VL: DIKMTQSPSSMYASLGERVTITCKASQDINSYLRWFQQKPGKSPKTLIYRANRLVDGVPSRFSGSGSGQDYSLNISSLEYEDMGIYYCLQYDEFPYTFGGGTKLEIK
notes: murine IgG
B7: SCT-Fa057 (antibody, V domains shown)
VH: EVQLQQSGPVLVKPGASVKMSCKASGYTFTDYYMNWVKQSHGKSLEWIGVINPYNGGTSYNQKFKGKATLTVDKSSSTAYMELNSLTSEDSAVYYCARGGDYDVNYSAMDYWGQGTSVTVSS
VL: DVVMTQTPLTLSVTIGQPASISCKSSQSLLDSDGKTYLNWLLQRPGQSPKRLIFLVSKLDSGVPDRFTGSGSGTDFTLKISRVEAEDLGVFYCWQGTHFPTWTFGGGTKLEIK
notes: murine IgG
B8: SCT-Fa068 (antibody, V domains shown)
VH: EVQLQQSGTVLARPGASVKMSCKTSGYTFTRYWMHWVKQRPGQGLEWIGAIYPGNSDTNYNQKIKGKAKLTAVTTASTAYMELSSLTNEDSAVYYCTFYYGNYVNYWGQGTTLTVSS
VL: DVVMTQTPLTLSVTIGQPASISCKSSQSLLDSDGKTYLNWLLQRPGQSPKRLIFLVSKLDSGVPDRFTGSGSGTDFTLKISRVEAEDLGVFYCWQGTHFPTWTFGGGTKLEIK
notes: murine IgG
B9: SCT-Fa062 (antibody, V domains shown)
VH: EVQLQQSGTVLARPGASVKMSCKTPGYTFTRYWMHWVKQRPGQGLEWIGAIYPGNSDTNYNQKIKGKAKLTAVTTASTAYMELSSLTNEDSAVYYCTFYYGNYVNYWGQGTTLTVSS
VL: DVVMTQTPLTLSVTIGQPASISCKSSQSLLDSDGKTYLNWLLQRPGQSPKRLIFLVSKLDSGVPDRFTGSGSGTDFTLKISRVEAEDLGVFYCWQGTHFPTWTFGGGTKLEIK
notes: murine IgG
B10: SCT-Fa063 (antibody, V domains shown)
VH: EVQLQQSGTVLARPGASVKMSCKTSGYTFIRYWMHWVKQRPGQGLEWIGAIYPGNSDTTYNQKFKGRAKLTAVTSASTAYMELSSLTNEDSAVYYCTFYYGNYVNFWGQGTTLTVSS
VL: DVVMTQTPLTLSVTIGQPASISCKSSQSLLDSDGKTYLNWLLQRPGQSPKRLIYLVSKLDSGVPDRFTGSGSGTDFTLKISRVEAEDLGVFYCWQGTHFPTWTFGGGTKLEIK
notes: murine IgG

What follows are binders tested against T1, Human TIM-3 Human Fc tagged protein (human, fluorescently labeled with HiLyte Fluor 555 (sites not given)) (assay: capture slide probed with labeled TIM-3-Fc;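 further: IgG from single CD138-enriched plasma cells, isolated from lymphocytes, immobilized on a derivatized glass slide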).
T1 construct: Bought construct; also called TIM-3 protein tagged with human Fc; ACROBiosystems catalog no: TM3-H5258

Binder	binding result
B1	binds
B2	binds
B3	binds
B4	binds
B5	binds
B6	binds
B7	binds
B8	binds
B9	binds
B10	binds

— US20230279105A1 (SINGLE CELL TECHNOLOGY, published 2023)
